# From the DeepSol protein solubility set
# Test: soluble on expression in E. coli; label from the status in PepcDB or PDB records
row,Sequence,soluble on expression in E. coli
1,MSEVKVITGTSAAAEAAKLADVDVIAAYPITPQTTCVEKLADFVANGELNAEYIKVESEHSAMSASIAASATGARTFTATSSQGLALMHEVLFAAAGMRVPVVMMNANRALSAPINIWNDQQDSLSQRDTGWIQLYAEDNQEVLDLVIQAFKIAEDEKVLLPVMVNLDGFILTHTVEPVTLPKQESVLDFIGSYEPKHAYLDPKKPMTQGSLGDPNYYMETRYAIETAMRNAEKVIADVHDAFAEKFNRAYGNGLIESYNLEKAENVIVAMGSICGTIKDMIDLKKKEGVEIGLLKIRCYRPLPVEMIKDALKNAKNVAILDKSISLGMNKGAIYADVASFLKDKKTVNYIVGLGGRDITPEDILGIYVDVETSEDGKTNWVGLKEE,not soluble
2,MSEVTRSLLQRWGASLRRGADFDSWGQLVEAIDEYQILARHLQKEAQAQHNNSEFTEEQKKTIGKIATCLELRSAALQSTQSQEEFKLEDLKKLEPILKNILTYNKEFPFDVQPI,soluble
3,MSEYNPCLDCGACCGYFRVSFFWGECQSAGGVVPDDLVVQINPTRVAMIGTDAKPCRCVSLQGEIGKEVACTIYANRSSPCREFDASWEGGVHNPSCDDARAAYGLPPLTPPEANEPHWPDDGAEVALEHHHHHH,soluble
4,MSFCSFFGGEVFQNHFEPGVYVCAKCSYELFSSHSKYAHSSPWPAFTETIHPDSVTKCPEKNRPEALKVSCGKCGNGLGHEFLNDGPKRGQSRFCIFSSSLKFVPKGKEAAASQGHLEHHHHHH,soluble
5,MSFFNPPANSNHGYNDDVNTGYNARMHSKLAEREGFHLGNGSDEPRTLYVGNLDSTVTEDFIATLFNQIGSVTKTKVIFDGSNDPYAFVEFSDHGQASQALQTMNKRLLLDREMKVNWAVEPGQQQSKIDTTRHFHVFVGDLSSEVDNQKLREAFQPFGDVSDAKVIRDTNTTKSKGYGFVSYPKREEAERAIEQMNGQWLGRRTIRTNWATRKPGDQEKPSHYNEKSYDEIYNQTSGDNTSVYVGNIASLTEDEIRQGFASFGRITEVRIFKMQGYAFVKFDNKDAAAKAIVQMNNQDVGGQLVRCSWGKTGDTGKTPGGSYGYGYGNSSSGGNSQPYSGYGGGGAYGGGQGGGGHGGPGQQQSNANSQYWQYYAQYYNNPQLMQQWSNYWQQQGGAPQQQNSGGHQ,not soluble
6,MSFFVNRIWYGNHFLQWILVPFSWLYRIVIRTRRWYLQRFCQQLYPIPIIVVGNVTVGGVGKTPLVIEIAKKIQQKGLKVGIVSRGYKAAIKHFPYEVKLNDSAELVGDEPLMMARKINCPVVIAPKRNEAVRYLLDKHSVEIIISDDGLQHYKMGRSIEIVVIDGMRKLGNGFCLPAGPLREPDSRLKQVDFVIVNQGAAEGTYSMELIPKNIVRLSTQEEVSNDLFTSEVAAVAGIGNPQRFYSTLSQLGIKFNPYSYPDHHQFKPHDLNDIDLPVIMTEKDAVKCYSFSSDKLYYLPVEAKLNDSFWEAFWSHQQLQGYYLEHHHHHH,not soluble
7,MSFLKCGVCTEDYSNVITNRHPKNLTCGHSICKACSSKLVSNFKILCPFCRKTTELRENENLQTNFALLEAISLFNDINESVTEPRSSGAPPNCEEHTYNLAEFVCISPNCSSRSKLMCRTCEEFGVHAGHRKGLLQVEAKKVRQNLLERQRKLQVNKKQVDDKIQALEKAALKKNDELYKEKYDEITRHYDRIRSSVAEREKTSKEVLKKSVLTSEEDNRMGQISNHVIRHLLEKKCEEVEQLVGMTDFELYRVKDKVDWNDESFSFSDVKEKPPMELKTLHVKLPEFRFEDSS,not soluble
8,MSFNPTRDDFEALLNDSMGGRDFAEGTVVKGKVVGIEKDFAIIDVGLKTEGRVQLKEFGVDENGKATVKAGDTVEVFLERLENAMGEAVISREKAKREEAWTRLEGVYARNEPVMGAIVGRVKGGFTVDLGGASAFLPGSQVDIRPVRDVGPLMGKEQPFAILKMDRPRGNIVVSRRAILEEARAEQRTELVSQLQEGEIREGVVKNITDYGAFVDLGGIDGLLHVTDMSWKRVNHPSQVLAVGDTVKVQIVKINPDTQRISLGMKQLQSDPWDGVEAKYPVGAKFTGRITNITDYGAFVELEAGVEGLVHVSEMSWTKKNVHPGKIVSTSQEVDVVVLDVDPSKRRVSLGLKQALANPWEAFLEAHPVGSTVEGEVKNATEFGLFVGLDNDIDGMVHLSDIDWSVPGEEAMARYKKGDMVKAKVLDVDVEKERISLGIKQLAGDPMSGDTYRKNQTVTVTVTEVTSGGIEVRFGEDDAPMTAFIRKSDLSRDRQEQRPERFAVGDRVDAQITNVDKAARRVSLSIKSLEMAEEKEAIEQFGSSDSGASLGDILGAALRERASKD,soluble
9,MSFPTSITDHPIVQEAVHRLDDLGDPRAGQTLTRCLNDTLARTIRPMPDGTAFVVTGDIPAMWLRDSSTQMMPYLALLKDDTALQHLLLAVLRRQFQQIAHDPYANAFNAEPSGRAHDPEDLCGDPWVWEQKYEVDSLAFPLLLAHRFWAATGRTDHVPGMLRTARTVISVWRTEQDHERLSTYRFRRENGPSSDTLPNAGRGTPVTRTGMTWSGFRPSDDACAFGYNVPANLCAAAALDGAAELAHHTHDTELAEDAARLAAELRAATARHGTVRHPDFGSIYAYEVDGNGNAVLMDDANMPGLLSLPLVANIPTTDPVYLATRGFVLSPRNPTWYRGTAAEGIGSPHTPDEHIWPIAIAVQGLTSNDTTERRWALTTLLATDAGTGQMHESFHKDDPHRFTRPWFSWANAMYAELALDTVGLGTRPLWQAGTLEHHHHHH,soluble
10,MSFQLHPDTTLDVVHLYVSNVKKSLEFYTEVLSMKVLKEEEAVVTFGNENDEPLLIIEEKKEAFPKQRGRTGLYHYAILLPSRQDLANVLRHLVEMVYPLHGGADHYFSEALYLADPDGNGIEIYHDRQKEVWRDENGELPFVSNPLAGEELLQQGSTWNGFPAGTVMGHIHFHVADLEEAKCFYVDGLGFEVTIPARNGALFVSAGGYHHHIGLNTWQGEGVPPQMPGSVGLKYFTIVLADEKQKEQVCESLKNIGKIATYKDGILQVEDPFGHCIHFKIKGEA,not soluble
11,MSFQQPQASPISPGDSGWLIKMRKNRYLDHTSKVNEPKKYRSMDQLPTGKVGAPDNEKSEGTDPLHWQLRKDFHLAKYSERRASYHVESSSYIHSSQQIQHPPQQHHPPPPSPPPVAETIQHQPHPSQQQPSTTTISSRQLYKSQLLYPPGSTENIASEHKPAIRPPEKSVYENNPIAPSELNVQVKRAPPQGPPPPPPPQAPADIDYPERLMSPPPTHQPRSILKGYSSQQYYSQTNLTESHHHQSSQETSLNPQQMHPRPSDRRTPTHFEDLSEDEKTRIMHENLQRHRNMRSGPNGPRPTTTSFNGPFFRLEQVNPGQNQPQQPQYQQHPRSQSVDPSGDMNGGPRPIHQNFSASEIELHHYSRNAEPSVVVWPPVSEKERERPSSVLAKNFNDPERIDEYQRQKRLEYEAIQRTNEKQAVSMAKQVNAMMQQQKLYERSHGMTSPVPIMESISPQPQVSHHHHQPQQHQQHQPQQQYYPSPPPPPQPYRDPEPVFNPVQVYETRPISALSDQIDQPPSQQAPTSWKRTYIVERPRDVAKNEIITSDQLLEKEAYDVDLLKRRETFVEKPEEAPRINRLGRRWQPPPERPYVWPTLRRAMSVEPSSMPVDFAPGVPHNYDDNEEYKWEPVVNDPGYKKEDKNFTPVNSPPASPRRGHGVGPLDEPARRQAKYVIQPSPDGSHRPKAVFRKERHAPSGGFYPHAPNAIKVVKKRAQSVQGLLSPTDNVEVIHQRNYHRLDLEQNGHHGQKLRRSQHGGSEMDLRRSTQEMPDWEKIYELPPHSSQIVQKDMPRHVDVQRRLSKFEGSIQNLRAATSTQHLDSMQQLHFPMPDYEPPQPPQQRRRTESSGYRGGPPPPPPMPQQQPREMSRRNSVASTRIDSPSLMIPHHRQSRSDSRGPPQMSRAASSIPLSPQPTPQHHHHHHSQRPTTPGATRARNYIARATAPSPTPYSYDRARAYVPPALPPGYRLADPIPDQRAMSPSPGHTRKLIRNVSESAQRLHPSGSTPQTSRAPSRHSHRQSPNPRFL,not soluble
12,MSGFDLIIFDCDGVLVDSEIIAAQVESRLLTEAGYPISVEEMGERFAGMTWKNILLQVESEASIPLSASLLDKSEKLLDMRLERDVKIIDGVKFALSRLTTPRCICSNSSSHRLDMMLTKVGLKPYFAPHIYSAKDLGADRVKPKPDIFLHGAAQFGVSPDRVVVVEDSVHGIHGARAAGMRVIGFTGASHTYPSHADRLTDAGAETVISRMQDLPAVIAAMAEWEGAF,soluble
13,MSGKRKLEDYKSIIGEEEVSKIQEKAEKLKGRSFVHVNSTSFGGGVAEILHSLVPLLRSIGIEARWFVIEGPTEFFNVTKTFHNALQGNESLKLTEEMKELYLNVNRENSKFIDLSSFDYVLVHDPQPAALIEFYEKKSPWLWRCHIDLSSPNREFWEFLRRFVEKYDRYIFHLPLEHHHHHH,not soluble
14,MSGRPFLLIHTFKDISKFREGDRDYSDIEVRYNIPWRLRIFKKEGFLGLKLYCEKEECIETKKWTFKTKFTMKLVAVDLPSSQSDFNNSFLLKHTFNNISKFVERDSDYSDAEDHYNIAWKIRILKYEECLGIYLDCQKEIYEGRKWSIKCEFKSSLISASGKFYSVQYTDVFDNRDSSMGSSTFISWIDMEKEYVTNDDCIDVTIHAKIISITDEPCEMKTFALSHTIKNMSSIREGEDYDTDTQYRFNIPWSLKILNRNEFSGLFIRCEKQLCKSRKWSIETEYQLKIVSPNGRSELFGGTYVFDNPNIYGWHIIRWSSLEDRYIVNDTLTVEAQVTIVKMTGIEDETPIEKPSGIVIPVGNQEFSLERWMEMAFDH,not soluble
15,MSGSHHHHHHSSGIEGRGRLQTRQDVLYLYNWTYYTPTSLIKKFEQQYNVQVVYDDYASNEDMFAKLSIGASGYDLVVPSGDFVSIMKRKHLLEKIDLSKIPNVQFIKESVRARIAYDPKMEYSVPYYLGAAGIAVNKKAVPSYARTWSIFSRKDLAYRMSMMDDMREVMGAALASLGYNVNTKNEQELAQAAILVTDHWKPNLVKFDSDGYAKSFASGDFVVAHGFAEAFFAETPEAMHEHIDFFIPQDVASPVYVDSFCIPKGARNRDLAHAFINFFLEPAHYAEFLDTFGFPSTIHREAAAYQKKTPYYSEHDLERGTLKTDVGAAIEHYNAHWNAVRFR,soluble
16,MSHDVKELIEGLNEDLAGEYSAIIMYNHNAATVSGIYRQVLKPFFESEISDEQGHALYLAEKIKTLGGTPTTIPLRVKQAEDVREMLEYARQSEYETIKRYEKRKEQAANLNMTELVVKLEDMIADETNHMEELDRLLNDKAMVLN,soluble
17,MSHLYDPTTQYYTGEYPKQKQPAPGVQAKMTPVPDCGEKSYVGSGRLKDRKALVTGGDSGIGRAAAIAYAREGADVAINYLPAEEEDAQQVKALIEECGRKAVLLPGDLSDESFARSLVHKAREALGGLDILALVAGKQTAIPEIKDLTSEQFQQTFAVNVFALFWITQEAIPLLPKGASIITTSSIQAYQPSPHLLDYAATKAAILNYSRGLAKQVAEKGIRVNIVAPGPIWTALQISGGQTQDKIPQFGQQTPMKRAGQPAELAPVYVYLASQESSYVTAEVHGVCGGEHLG,not soluble
18,MSHPWRSRGEKRTIMFGYTPSDTILKYLKDMRDLINRAILNAYSIARSNDDSLPSPITLRRSLKDYYDNNVAYAKHHINPVCRTAIAMLRSYKKNNGRLKVVKAKRLAMRIDSELAKIEDNRLRITIRPNVYEYVDIVDRNKKYSEYSKYPISEVLLTDNRVYITFITGSDDKPVIANNIIGFDLNFKSVDYTVIKDNRIAYVDSIDTYDIAKTQRDYERKRRKIQKHIRNPAKRIRKLKEAKHRQRNIVRDKLQKLTTNIVKNNEDKTFVFEDLTNIKKKGKKHKDHKRDGQSSKRFRTDINRWPYRLFQMFVEYKSKNETLYVDPEGTSSECPVCGGILEHPIWKMSKCDNCGATFDRDRLSSLSIAVRGLHLCGTPFSVSGSASWDSMKDNYLYR,not soluble
